System: Escherichia coli TOP10
Assay: shrunken log2 fold change of peptide-encoding DNA abundance (4.5 h post-induction vs induction); higher = less antimicrobial activity (less host growth inhibition)
Conditions: time post-induction: 4.5 h; library: site-saturation at positions 5, 18, 19, 20
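Note: peptides expressed intracellularly from a pBAD plasmid library in pooled LB shake-flask culture, induced with 0.3% L-arabinose, DNA abundance read by NGS, three biological replicates, DESeq2 with apeglm shrinkage.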

Row | Sequence | shrunken log2 fold change
1 | RRIRTRPPRLPRPRPRPTFSPRP | -0.169
2 | RRIRPRPPRLPRPRPRPMKGPRP | 0.15
3 | RRIRQRPPRLPRPRPRPHAYPRP | -0.352
4 | RRIRDRPPRLPRPRPRPTMVPRP | 0.028
5 | RRIRRRPPRLPRPRPRPLVLPRP | 0.0551
6 | RRIRGRPPRLPRPRPRPTEPPRP | 0.716
7 | RRIRERPPRLPRPRPRPTGQPRP | -0.0359
8 | RRIRERPPRLPRPRPRPCFWPRP | -0.176
9 | RRIRHRPPRLPRPRPRPGCAPRP | 0.124
10 | RRIRNRPPRLPRPRPRPDDTPRP | 0.0119
11 | RRIRLRPPRLPRPRPRPAGYPRP | -0.0817
12 | RRIRGRPPRLPRPRPRPQLPPRP | 0.183
13 | RRIRWRPPRLPRPRPRPTVCPRP | 0.00145
14 | RRIRIRPPRLPRPRPRPQVNPRP | -0.444
15 | RRIRQRPPRLPRPRPRPLAMPRP | 0.294
16 | RRIRYRPPRLPRPRPRPTDFPRP | -0.325
17 | RRIRARPPRLPRPRPRPQQFPRP | 0.097
18 | RRIRIRPPRLPRPRPRPGHWPRP | 0.0615
19 | RRIRVRPPRLPRPRPRPGDKPRP | 0.00318
20 | RRIRARPPRLPRPRPRPEVMPRP | 0.28
21 | RRIRIRPPRLPRPRPRPPMMPRP | 0.568
22 | RRIRCRPPRLPRPRPRPNCSPRP | 0.0117
23 | RRIRERPPRLPRPRPRPGATPRP | 0.148
24 | RRIRTRPPRLPRPRPRPGLVPRP | 0.0962
25 | RRIRMRPPRLPRPRPRPHGSPRP | 0.0248

Row | Sequence | shrunken log2 fold change
26 | RRIRQRPPRLPRPRPRPSPDPRP | 0.262
27 | RRIRIRPPRLPRPRPRPPDLPRP | -0.00973
28 | RRIRRRPPRLPRPRPRPYTHPRP | -0.505
29 | RRIRGRPPRLPRPRPRPTLDPRP | 0.93
30 | RRIRTRPPRLPRPRPRPSHKPRP | -0.421
31 | RRIRCRPPRLPRPRPRPSEFPRP | -0.287
32 | RRIRARPPRLPRPRPRPLFKPRP | 0.117
33 | RRIRKRPPRLPRPRPRPSMWPRP | 1.63
34 | RRIRMRPPRLPRPRPRPHVRPRP | 0.231
35 | RRIRWRPPRLPRPRPRPNQIPRP | -0.189
36 | RRIRQRPPRLPRPRPRPSLNPRP | -0.216
37 | RRIRRRPPRLPRPRPRPCGGPRP | 0.686
38 | RRIRKRPPRLPRPRPRPWWCPRP | 0.0624
39 | RRIRARPPRLPRPRPRPDTAPRP | 0.147
40 | RRIRMRPPRLPRPRPRPCRLPRP | 0.0956
41 | RRIRCRPPRLPRPRPRPPVEPRP | 0.35
42 | RRIRFRPPRLPRPRPRPIQDPRP | -0.025
43 | RRIRTRPPRLPRPRPRPSMVPRP | -0.0429
44 | RRIRSRPPRLPRPRPRPSYIPRP | -1.48
45 | RRIRRRPPRLPRPRPRPMVIPRP | -0.189
46 | RRIRSRPPRLPRPRPRPLGHPRP | -0.051
47 | RRIRVRPPRLPRPRPRPNTWPRP | -0.197
48 | RRIRMRPPRLPRPRPRPMCGPRP | 0.00224
49 | RRIRIRPPRLPRPRPRPQEQPRP | -0.0376
50 | RRIRARPPRLPRPRPRPRFKPRP | 0.122

Row | Sequence | shrunken log2 fold change
51 | RRIRTRPPRLPRPRPRPYQPPRP | -0.0681
52 | RRIRTRPPRLPRPRPRPEMAPRP | 0.484
53 | RRIRYRPPRLPRPRPRPPVQPRP | -0.0548
54 | RRIRHRPPRLPRPRPRPLKPPRP | 0.18
55 | RRIRNRPPRLPRPRPRPHQKPRP | 0.0226
56 | RRIRDRPPRLPRPRPRPQKKPRP | -0.0848
57 | RRIRARPPRLPRPRPRPMRQPRP | 0.829
58 | RRIRFRPPRLPRPRPRPICKPRP | -0.0703
59 | RRIRCRPPRLPRPRPRPVVPPRP | -0.168
60 | RRIRHRPPRLPRPRPRPMYLPRP | -0.412
61 | RRIRNRPPRLPRPRPRPWRMPRP | 0.0039
62 | RRIRVRPPRLPRPRPRPYMFPRP | -0.552
63 | RRIRYRPPRLPRPRPRPHTDPRP | -0.368
64 | RRIRYRPPRLPRPRPRPIQMPRP | -0.0163
65 | RRIRNRPPRLPRPRPRPQGQPRP | 0.225
66 | RRIRLRPPRLPRPRPRPWYFPRP | -0.231
67 | RRIRARPPRLPRPRPRPTAVPRP | 0.873
68 | RRIRKRPPRLPRPRPRPKCCPRP | 0.0349
69 | RRIRLRPPRLPRPRPRPNCSPRP | 0.121
70 | RRIRSRPPRLPRPRPRPWQRPRP | 0.074
71 | RRIRCRPPRLPRPRPRPMGWPRP | 0.324
72 | RRIRGRPPRLPRPRPRPKLYPRP | 0.354
73 | RRIRGRPPRLPRPRPRPNNAPRP | 0.0616
74 | RRIRRRPPRLPRPRPRPYDYPRP | 0.00863
75 | RRIRIRPPRLPRPRPRPTGEPRP | 0.00229

Row | Sequence | shrunken log2 fold change
76 | RRIRHRPPRLPRPRPRPMVIPRP | -0.0264
77 | RRIRQRPPRLPRPRPRPADQPRP | 0.012
78 | RRIRDRPPRLPRPRPRPNLYPRP | -0.0872
79 | RRIRDRPPRLPRPRPRPRQFPRP | 0.0037
80 | RRIRFRPPRLPRPRPRPRQCPRP | -0.123
81 | RRIRCRPPRLPRPRPRPIVEPRP | -0.151
82 | RRIRSRPPRLPRPRPRPIQCPRP | 0.0235
83 | RRIRERPPRLPRPRPRPKYDPRP | -0.0434
84 | RRIRQRPPRLPRPRPRPSCEPRP | 0.0555
85 | RRIRPRPPRLPRPRPRPRVFPRP | 0.607
86 | RRIRIRPPRLPRPRPRPLKFPRP | -0.373
87 | RRIRERPPRLPRPRPRPEATPRP | 0.18
88 | RRIRMRPPRLPRPRPRPYKMPRP | -0.277
89 | RRIRSRPPRLPRPRPRPASHPRP | -0.167
90 | RRIRWRPPRLPRPRPRPFNVPRP | -0.114
91 | RRIRRRPPRLPRPRPRPNMHPRP | 0.0848
92 | RRIRRRPPRLPRPRPRPMMQPRP | 0.112
93 | RRIRNRPPRLPRPRPRPCPQPRP | 0.0087
94 | RRIRVRPPRLPRPRPRPLSLPRP | -0.0403
95 | RRIRLRPPRLPRPRPRPPIWPRP | 0.0261
96 | RRIRGRPPRLPRPRPRPTIMPRP | 0.365
97 | RRIRVRPPRLPRPRPRPGVGPRP | 0.275
98 | RRIRGRPPRLPRPRPRPAMVPRP | 0.252
99 | RRIRPRPPRLPRPRPRPSLKPRP | -0.25
100 | RRIRKRPPRLPRPRPRPPFCPRP | -0.0397

Row | Sequence | shrunken log2 fold change
101 | RRIRDRPPRLPRPRPRPCQYPRP | -0.0971
102 | RRIRPRPPRLPRPRPRPCWDPRP | -0.0457
103 | RRIRTRPPRLPRPRPRPQEDPRP | -0.01
104 | RRIRPRPPRLPRPRPRPWPNPRP | -0.0364
105 | RRIRSRPPRLPRPRPRPKEAPRP | -0.144
106 | RRIRARPPRLPRPRPRPKKCPRP | 0.0283
107 | RRIRLRPPRLPRPRPRPMKNPRP | -0.303
108 | RRIRDRPPRLPRPRPRPLSAPRP | 0.379
109 | RRIRVRPPRLPRPRPRPAAYPRP | 0.00526
110 | RRIRGRPPRLPRPRPRPWNFPRP | -0.289
111 | RRIRKRPPRLPRPRPRPEHVPRP | 0.0142
112 | RRIRIRPPRLPRPRPRPISIPRP | 0.0772
113 | RRIRIRPPRLPRPRPRPTHRPRP | -0.322
114 | RRIRMRPPRLPRPRPRPWCWPRP | 0.366
115 | RRIRSRPPRLPRPRPRPDIIPRP | -0.16
116 | RRIRDRPPRLPRPRPRPEWMPRP | 0.764
117 | RRIRFRPPRLPRPRPRPTDNPRP | -0.205
118 | RRIRTRPPRLPRPRPRPLSIPRP | -0.487
119 | RRIRIRPPRLPRPRPRPTLWPRP | 0.22
120 | RRIRFRPPRLPRPRPRPNPIPRP | -0.423
121 | RRIRNRPPRLPRPRPRPVTGPRP | -0.362
122 | RRIRDRPPRLPRPRPRPRDFPRP | 0.106
123 | RRIRKRPPRLPRPRPRPTDMPRP | -0.124
124 | RRIRTRPPRLPRPRPRPGHRPRP | -0.216
125 | RRIRRRPPRLPRPRPRPTNKPRP | 0.149

— the supplement of paper PMC9112550, “Optimization of the antimicrobial peptide Bac7 by deep mutational scanning” (BMC Biology, 2022)
